# Assay results from publication doi:10.1101/301655 (bioRxiv, 2018).
# T1: Lon protease (Caulobacter crescentus) (Caulobacter crescentus, UniProt P0CAW0 1-799)
# T1 sequence (looked up): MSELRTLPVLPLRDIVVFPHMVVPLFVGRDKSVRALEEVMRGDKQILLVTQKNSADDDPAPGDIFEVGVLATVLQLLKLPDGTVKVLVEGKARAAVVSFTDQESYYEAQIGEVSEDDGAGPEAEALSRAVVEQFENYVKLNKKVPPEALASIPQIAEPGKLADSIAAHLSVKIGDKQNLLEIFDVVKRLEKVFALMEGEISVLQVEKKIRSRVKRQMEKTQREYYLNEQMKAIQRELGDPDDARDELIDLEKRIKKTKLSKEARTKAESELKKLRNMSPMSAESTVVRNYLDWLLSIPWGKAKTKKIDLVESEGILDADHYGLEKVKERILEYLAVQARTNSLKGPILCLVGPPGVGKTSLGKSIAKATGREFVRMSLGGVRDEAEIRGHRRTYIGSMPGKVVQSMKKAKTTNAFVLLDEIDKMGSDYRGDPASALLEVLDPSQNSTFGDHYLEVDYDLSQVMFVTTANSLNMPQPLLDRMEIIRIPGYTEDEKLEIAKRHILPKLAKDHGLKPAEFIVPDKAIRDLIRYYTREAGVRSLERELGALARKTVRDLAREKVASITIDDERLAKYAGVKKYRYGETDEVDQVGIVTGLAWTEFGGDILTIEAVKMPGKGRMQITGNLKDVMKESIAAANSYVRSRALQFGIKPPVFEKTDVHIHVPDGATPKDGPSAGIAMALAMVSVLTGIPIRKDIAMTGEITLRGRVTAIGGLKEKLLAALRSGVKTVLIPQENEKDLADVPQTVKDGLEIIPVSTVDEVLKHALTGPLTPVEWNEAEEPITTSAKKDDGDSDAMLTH
# Target: T1, Lon protease (Caulobacter crescentus)
# Assay: filtration-spin binding assay
row,binding result,Binder
1,binds,"DnaA fragment 117-391 (linker domain II and AAA+ ATPase domain III) (domain or fragment, Caulobacter crescentus, UniProt P0CAU4 117-391, looked up) AVAAEPIEIVLPVSTDAPTVVAPSAKSPRTQGLQERFTFETFVPGPANEFAHAVARRIANWADGHFNPVLFHGPYGFGKTHLLNALAWEAMRNAPEKRVVYLTAERFLSTFVRAVMDRQTAAFKEELRAADLLIIDDVHFIAGKQSTQEELFHTLTALVGEGGRVVFSADRPPSAMTEMDAHLRSHLSAGLVCGLEPADRNLRLGILERKIQTLGAAHGFEPSIRPEVMQFLADRFTDSVRELEGALNTLSARAGEGLSRMTLDEVQAILRPHLR"
2,binds,"DnaA fragment 143-391 (AAA+ ATPase domain III) (domain or fragment, Caulobacter crescentus, UniProt P0CAU4 143-391, looked up) SPRTQGLQERFTFETFVPGPANEFAHAVARRIANWADGHFNPVLFHGPYGFGKTHLLNALAWEAMRNAPEKRVVYLTAERFLSTFVRAVMDRQTAAFKEELRAADLLIIDDVHFIAGKQSTQEELFHTLTALVGEGGRVVFSADRPPSAMTEMDAHLRSHLSAGLVCGLEPADRNLRLGILERKIQTLGAAHGFEPSIRPEVMQFLADRFTDSVRELEGALNTLSARAGEGLSRMTLDEVQAILRPHLR"
3,binds,"DnaA fragment 143-490 (domains III+IV) (domain or fragment, Caulobacter crescentus, UniProt P0CAU4 143-490, looked up) SPRTQGLQERFTFETFVPGPANEFAHAVARRIANWADGHFNPVLFHGPYGFGKTHLLNALAWEAMRNAPEKRVVYLTAERFLSTFVRAVMDRQTAAFKEELRAADLLIIDDVHFIAGKQSTQEELFHTLTALVGEGGRVVFSADRPPSAMTEMDAHLRSHLSAGLVCGLEPADRNLRLGILERKIQTLGAAHGFEPSIRPEVMQFLADRFTDSVRELEGALNTLSARAGEGLSRMTLDEVQAILRPHLRSGEKRITIDDIQKATAEHYGMKQADLLSERRNRAVARPRQAAMWLAKQLTTRSLPDIGRRFGGRDHTTVLHAVRRIEALRAEDSALSHDLETLTRKLRG"
